{"source": "paper PMC4250932", "tested_on": "NC(=O)C1=CN([C@@H]2O[C@H](COP(=O)(O)OP(=O)(O)OC[C@H]3O[C@@H](n4cnc5c(N)ncnc54)[C@H](OP(=O)(O)O)[C@@H]3O)[C@@H](O)[C@H]2O)C=CC1", "assay": "purified protein", "conditions": "varied: cofactor"}
{"substance": "RmlD (dTDP-6-deoxy-L-lyxo-4-hexulose reductase) (Mycobacterium tuberculosis H37Rv)", "values": [{"measurement": "Km", "result": 12.5, "unit": "µM"}]}
